The text below walks through data of publication PMC10398351 (2023).

Assay in all cases: SPR
Assay [1] has as its target MUC1 TRD-Tn (3) (UniProt P15941, Tn antigen (GalNAcα) on the Thr of the Asp-Thr-Arg-Pro moiety).
Assay [2] has as its target non-glycosylated MUC1 TRD (2) (UniProt P15941).
The target in assay [3] is MUC1-ST (4) (UniProt P15941, ST antigen (Neu5Acα2,3Galβ1,3GalNAcα) on the Thr of the Asp-Thr-Arg-Pro moiety).

What is called koff is the rate constant with which the complex falls apart. Lower therefore signals slow dissociation. What is called Kd is the free concentration of one partner at which half of the binding sites on the other are occupied at equilibrium, for simple one-to-one binding. Low values mean higher affinity, high ones lower affinity.

Sequence of non-glycosylated MUC1 TRD (2) (P15941 whole entry, looked up): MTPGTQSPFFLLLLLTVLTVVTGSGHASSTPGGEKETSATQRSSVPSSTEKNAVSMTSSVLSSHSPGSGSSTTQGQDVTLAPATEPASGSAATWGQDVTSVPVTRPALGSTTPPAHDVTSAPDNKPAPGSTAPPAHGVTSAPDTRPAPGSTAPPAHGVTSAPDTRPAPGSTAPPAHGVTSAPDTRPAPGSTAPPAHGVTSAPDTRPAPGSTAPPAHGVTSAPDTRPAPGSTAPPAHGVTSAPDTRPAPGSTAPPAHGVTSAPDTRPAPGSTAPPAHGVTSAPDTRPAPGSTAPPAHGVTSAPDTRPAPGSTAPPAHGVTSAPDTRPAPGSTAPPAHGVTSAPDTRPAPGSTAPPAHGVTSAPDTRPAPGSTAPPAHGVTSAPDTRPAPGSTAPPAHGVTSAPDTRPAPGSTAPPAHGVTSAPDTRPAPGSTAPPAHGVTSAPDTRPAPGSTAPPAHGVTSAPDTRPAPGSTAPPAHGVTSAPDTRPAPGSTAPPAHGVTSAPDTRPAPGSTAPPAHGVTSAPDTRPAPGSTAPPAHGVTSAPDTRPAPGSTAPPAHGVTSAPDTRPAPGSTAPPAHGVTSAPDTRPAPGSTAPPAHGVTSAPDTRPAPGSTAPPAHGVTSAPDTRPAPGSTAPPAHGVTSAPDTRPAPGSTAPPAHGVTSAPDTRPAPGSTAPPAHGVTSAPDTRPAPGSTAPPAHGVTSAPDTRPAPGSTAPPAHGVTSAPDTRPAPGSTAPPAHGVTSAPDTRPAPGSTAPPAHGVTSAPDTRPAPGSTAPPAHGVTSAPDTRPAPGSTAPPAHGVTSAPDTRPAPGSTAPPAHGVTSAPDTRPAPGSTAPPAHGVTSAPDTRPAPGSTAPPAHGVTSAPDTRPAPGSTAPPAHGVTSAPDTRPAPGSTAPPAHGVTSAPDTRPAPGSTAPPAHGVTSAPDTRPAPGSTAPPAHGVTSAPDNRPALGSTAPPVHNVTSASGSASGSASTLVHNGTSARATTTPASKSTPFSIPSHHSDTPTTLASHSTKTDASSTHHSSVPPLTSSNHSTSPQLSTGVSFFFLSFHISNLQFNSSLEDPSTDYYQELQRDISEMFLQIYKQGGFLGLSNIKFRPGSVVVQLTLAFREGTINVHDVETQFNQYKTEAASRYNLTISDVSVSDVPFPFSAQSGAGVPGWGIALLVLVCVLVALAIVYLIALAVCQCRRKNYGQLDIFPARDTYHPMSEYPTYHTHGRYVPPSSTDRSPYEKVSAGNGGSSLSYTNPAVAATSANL
Sequence of MUC1-ST (4) (P15941 whole entry, looked up): as above
Sequence of MUC1 TRD-Tn (3) (P15941 whole entry, looked up): as above

B1: SN-131 Fab (Fab, V domains shown)
VH: QVQLQQSGAELARPGASVKLSCKASGYTFTNYGLSWVKQRTGQGLEWIGENHPGSGIIYHNEKFRGKATLTADKSSSTAYVQLSSLTSEDSAVYFCARSSGTRGFAYWGQGTLVTVSA
VL: DVLMTQTPLSLPVSLGDQASISCRSSQSIVHSNGNTYLEWYLQKPGQSPKLLIYKVSNRFSGVPDRFSGSGSGTDFTLKISRVEAEDLGVYYCFQGSHGPWTFGGGTKLEIK
Turning to B1, the koff in assay [1] is 0.00144 s⁻¹; in assay [2], 0.00225 s⁻¹; in assay [3], 0.000456 s⁻¹. Also, the Kd in assay [2] is 10.8 µM.
